T1: human MIC-1 receptor (hGFRAL, GDNF family receptor alpha like) (human, UniProt Q6UXV0 19-394)
T1 sequence (looked up): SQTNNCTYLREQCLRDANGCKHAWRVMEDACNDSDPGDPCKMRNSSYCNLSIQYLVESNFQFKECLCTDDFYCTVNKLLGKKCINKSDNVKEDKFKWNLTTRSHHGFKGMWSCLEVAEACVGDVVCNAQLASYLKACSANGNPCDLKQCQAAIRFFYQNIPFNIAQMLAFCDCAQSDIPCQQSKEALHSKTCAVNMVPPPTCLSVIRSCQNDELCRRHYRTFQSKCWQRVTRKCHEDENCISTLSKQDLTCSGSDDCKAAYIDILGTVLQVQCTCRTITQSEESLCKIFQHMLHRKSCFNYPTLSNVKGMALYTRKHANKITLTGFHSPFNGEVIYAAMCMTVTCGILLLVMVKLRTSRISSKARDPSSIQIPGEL

B1: AAPEDEETPEQE-MIC-1-Δ1-3 (ligand)
chain: AAPEDEETPEQEGDHCPLGPGRCCRLHTVRASLEDLGWADWVLSPREVQVTMCIGACPSQFRAANMHAQIKTSLHRLKPDTVPAPCCVPASYNPMVLIQKTDTGVSLQTYDDLLAKDCHCI
B2: SEPATSGSETPGTSESATPESGPGTSTEPS-MIC-1-Δ1-3 (ligand)
chain: SEPATSGSETPGTSESATPESGPGTSTEPSGDHCPLGPGRCCRLHTVRASLEDLGWADWVLSPREVQVTMCIGACPSQFRAANMHAQIKTSLHRLKPDTVPAPCCVPASYNPMVLIQKTDTGVSLQTYDDLLAKDCHCI
B3: MIC-1(R2A, N3E, A81E) (ligand)
chain: AAEGDHCPLGPGRCCRLHTVRASLEDLGWADWVLSPREVQVTMCIGACPSQFRAANMHAQIKTSLHRLKPDTVPAPCCVPESYNPMVLIQKTDTGVSLQTYDDLLAKDCHCI
B4: A(GPEQGQEP)3-MIC-1-Δ1-3 (ligand)
chain: AGPEQGQEPGPEQGQEPGPEQGQEPGDHCPLGPGRCCRLHTVRASLEDLGWADWVLSPREVQVTMCIGACPSQFRAANMHAQIKTSLHRLKPDTVPAPCCVPASYNPMVLIQKTDTGVSLQTYDDLLAKDCHCI
B5: AAPEDEETPEQEGSGSGSGSGS-MIC-1-Δ1-3 (ligand)
chain: AAPEDEETPEQEGSGSGSGSGSGDHCPLGPGRCCRLHTVRASLEDLGWADWVLSPREVQVTMCIGACPSQFRAANMHAQIKTSLHRLKPDTVPAPCCVPASYNPMVLIQKTDTGVSLQTYDDLLAKDCHCI
B6: AAPDEGTEEETEGSGSGSGSGS-MIC-1-Δ1-3 (ligand)
chain: AAPDEGTEEETEGSGSGSGSGSGDHCPLGPGRCCRLHTVRASLEDLGWADWVLSPREVQVTMCIGACPSQFRAANMHAQIKTSLHRLKPDTVPAPCCVPASYNPMVLIQKTDTGVSLQTYDDLLAKDCHCI
B7: SEPATSGSETPGTSESATPESGPG TSTEPSEG-MIC-1-Δ1-3 (ligand)
chain: SEPATSGSETPGTSESATPESGPGTSTEPSEGGDHCPLGPGRCCRLHTVRASLEDLGWADWVLSPREVQVTMCIGACPSQFRAANMHAQIKTSLHRLKPDTVPAPCCVPASYNPMVLIQKTDTGVSLQTYDDLLAKDCHCI
B8: …-MIC-1-Δ1-3 (ligand)
chain: SEPATSGSETPGTSTEPSEGSAPGGDHCPLGPGRCCRLHTVRASLEDLGWADWVLSPREVQVTMCIGACPSQFRAANMHAQIKTSLHRLKPDTVPAPCCVPASYNPMVLIQKTDTGVSLQTYDDLLAKDCHCI
B9: (SEPATSGSETPG)2-MIC-1-Δ1-3(M57L) (ligand)
chain: SEPATSGSETPGSEPATSGSETPGGDHCPLGPGRCCRLHTVRASLEDLGWADWVLSPREVQVTMCIGACPSQFRAANLHAQIKTSLHRLKPDTVPAPCCVPASYNPMVLIQKTDTGVSLQTYDDLLAKDCHCI
B10: (SEPATSGSETPG)2-MIC-1-Δ1-3(M57E) (ligand)
chain: SEPATSGSETPGSEPATSGSETPGGDHCPLGPGRCCRLHTVRASLEDLGWADWVLSPREVQVTMCIGACPSQFRAANEHAQIKTSLHRLKPDTVPAPCCVPASYNPMVLIQKTDTGVSLQTYDDLLAKDCHCI
B11: (SEPATSGSETPG)2-MIC-1-Δ1-3 (ligand)
chain: SEPATSGSETPGSEPATSGSETPGGDHCPLGPGRCCRLHTVRASLEDLGWADWVLSPREVQVTMCIGACPSQFRAANMHAQIKTSLHRLKPDTVPAPCCVPASYNPMVLIQKTDTGVSLQTYDDLLAKDCHCI

Results on eleven molecules are retold here after patent US12006344 (Novo Nordisk, dated 2024).

The target of the test is T1, human MIC-1 receptor (hGFRAL, GDNF …). Description: cell-based or functional assay.
On to B1, for which the “pERK EC50 (nM)” value worked out at 0.5 nM and the “pERK Emax (%)” value is 100%.

For the molecule B2, the “pERK EC50 (nM)” value stood at 0.4 nM and the “pERK Emax (%)” value turned out to be 100%.

As for B3, the “pERK EC50 (nM)” value turned out to be 0.3 nM and the “pERK Emax (%)” value was determined as 100%.

In the case of B4, the “pERK EC50 (nM)” value stood at 0.8 nM and the “pERK Emax (%)” value amounted to 100%.

As to B5, the “pERK EC50 (nM)” value was 0.5 nM and the “pERK Emax (%)” value came to 100%.

With B6, the “pERK EC50 (nM)” value is 0.5 nM and the “pERK Emax (%)” value is 100%.

B7: the “pERK EC50 (nM)” value was 0.4 nM and the “pERK Emax (%)” value was determined as 100%.

Regarding B8, the “pERK EC50 (nM)” value worked out at 0.7 nM and the “pERK Emax (%)” value worked out at 100%.

For B9, the “pERK EC50 (nM)” value was found to be 0.6 nM and the “pERK Emax (%)” value was 100%.

Take B10: the “pERK EC50 (nM)” value is 0.6 nM and the “pERK Emax (%)” value was 60%.

With B11, the “pERK EC50 (nM)” value came out at 0.4 nM and the “pERK Emax (%)” value amounted to 100%.
